# Numbered stars: 1 amine (or outer) side, 2 acyl side, 3 side chain; on linkers, the order of the positions; unused ones are H or OH. Bridge positions count the residues as written; N and C are the ends. Square brackets hold non-standard residues; d marks the D form. Primed or numbered codes have the meaning given here. Ends that are not written are not given here. * marks the point of attachment. X7 = 4‑(3,5-Dimethyl-1,2-oxazol-4-yl)‑L‑phenylalanine, Cc1noc(C)c1-c1ccc(C[C@H](N[*:1])C(=O)[*:2])cc1; X13 = (2S)‑2‑amino‑3‑(1-methylcyclopropyl)propanoic acid, CC1(C[C@H](N[*:1])C(=O)[*:2])CC1; Tranexamic″ = tranexamic acid, NC[C@H]1CC[C@@H](C(=O)*)CC1; X5 = Tetrahydropyranyl‑4‑acetic acid, O=C(CC1CCOCC1)*; Phe(2,5-diF) = O=C([C@H](Cc1cc(F)ccc1F)N[*:1])[*:2]; Oic = O=C(O)[C@@H]1C[C@@H]2CCCC[C@@H]2N1; Cyclobutylacetic = O=C(CC1CCC1)*; tBuAla = CC(C)(C)C[C@H](N)C(=O)O; Pen = CC(C)(S)[C@H](N)C(=O)O; ΔPro = O=C(O)[C@@H]1C=CCN1; NMeC = CN[C@@H](CS)C(=O)O; Sar = CNCC(=O)O
# T1: recombinant rat MASP1 active protease (amino acids 302-704, C-terminal His Tag) (rat, UniProt Q8CHN8 302-704)
# T1 sequence: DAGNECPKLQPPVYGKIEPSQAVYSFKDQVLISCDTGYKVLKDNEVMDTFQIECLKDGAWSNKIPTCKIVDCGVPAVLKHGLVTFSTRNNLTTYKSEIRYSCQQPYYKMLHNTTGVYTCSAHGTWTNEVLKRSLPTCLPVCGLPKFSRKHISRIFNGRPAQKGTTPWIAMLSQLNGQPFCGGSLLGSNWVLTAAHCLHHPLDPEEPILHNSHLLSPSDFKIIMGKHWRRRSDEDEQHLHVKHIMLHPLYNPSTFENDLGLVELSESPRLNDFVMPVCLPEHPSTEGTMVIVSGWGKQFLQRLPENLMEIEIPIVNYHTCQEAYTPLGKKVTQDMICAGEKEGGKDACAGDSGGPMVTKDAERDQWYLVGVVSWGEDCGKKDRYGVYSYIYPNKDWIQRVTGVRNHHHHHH
# B1: Example 267: ((N-Me)G)-IC+SRS-((2S)-2-amino-3-(1-methylcyclopropyl)propanoic acid)-P-(Oic)-I-(Pen)+IP-NH2 (peptide)
# peptide: [Sar]ICSRS[X13]P[Oic]I[Pen]IP-NH2
# modifications: disulfide 3-11; N-terminus assumed
# SMILES: CC[C@H](C)[C@H](NC(=O)CNC)C(=O)N[C@H]1CSSC(C)(C)[C@@H](C(=O)N[C@H](C(=O)N2CCC[C@H]2C(N)=O)[C@@H](C)CC)NC(=O)[C@H]([C@@H](C)CC)NC(=O)[C@@H]2C[C@@H]3CCCC[C@@H]3N2C(=O)[C@@H]2CCCN2C(=O)[C@H](CC2(C)CC2)NC(=O)[C@H](CO)NC(=O)[C@H](CCCNC(=N)N)NC(=O)[C@H](CO)NC1=O
# B2: Example 235: AIC+SRS-((2,5-Difluoro)F)-PPI-((N-Me)C)+IPD-NH2 (peptide)
# peptide: AICSRS[Phe(2,5-diF)]PPI[NMeC]IPD-NH2
# modifications: disulfide 3-11; N-terminus assumed
# SMILES: CC[C@H](C)[C@H](NC(=O)[C@H](C)N)C(=O)N[C@H]1CSSC[C@@H](C(=O)N[C@H](C(=O)N2CCC[C@H]2C(=O)N[C@@H](CC(=O)O)C(N)=O)[C@@H](C)CC)N(C)C(=O)[C@H]([C@@H](C)CC)NC(=O)[C@@H]2CCCN2C(=O)[C@@H]2CCCN2C(=O)[C@H](Cc2cc(F)ccc2F)NC(=O)[C@H](CO)NC(=O)[C@H](CCCNC(=N)N)NC(=O)[C@H](CO)NC1=O
# B3: Example 224: AIC+SRSLP-(Oic)-IC+IPD-NH2 (peptide)
# peptide: AICSRSLP[Oic]ICIPD-NH2
# modifications: disulfide 3-11; N-terminus assumed
# SMILES: CC[C@H](C)[C@H](NC(=O)[C@H](C)N)C(=O)N[C@H]1CSSC[C@@H](C(=O)N[C@H](C(=O)N2CCC[C@H]2C(=O)N[C@@H](CC(=O)O)C(N)=O)[C@@H](C)CC)NC(=O)[C@H]([C@@H](C)CC)NC(=O)[C@@H]2C[C@@H]3CCCC[C@@H]3N2C(=O)[C@@H]2CCCN2C(=O)[C@H](CC(C)C)NC(=O)[C@H](CO)NC(=O)[C@H](CCCNC(=N)N)NC(=O)[C@H](CO)NC1=O
# B4: Example 269: (Tranexamic)-IC+SRS-((tBu)A)-PPI-(Pen)+IP-NH2 (peptide)
# peptide: {Tranexamic″}-ICSRS[tBuAla]PPI[Pen]IP-NH2
# modifications: disulfide 2-10
# SMILES: CC[C@H](C)[C@@H]1NC(=O)[C@@H]2CCCN2C(=O)[C@@H]2CCCN2C(=O)[C@H](CC(C)(C)C)NC(=O)[C@H](CO)NC(=O)[C@H](CCCNC(=N)N)NC(=O)[C@H](CO)NC(=O)[C@@H](NC(=O)[C@@H](NC(=O)[C@H]2CC[C@@H](CN)CC2)[C@@H](C)CC)CSSC(C)(C)[C@@H](C(=O)N[C@H](C(=O)N2CCC[C@H]2C(N)=O)[C@@H](C)CC)NC1=O
# B5: Example 237: AIC+SRSL-(L-dehydroproline)-(Oic)-I-(Pen)+IPD-OH (peptide)
# peptide: AICSRSL[ΔPro][Oic]I[Pen]IPD-OH
# modifications: disulfide 3-11; N-terminus assumed
# SMILES: CC[C@H](C)[C@H](NC(=O)[C@H](C)N)C(=O)N[C@H]1CSSC(C)(C)[C@@H](C(=O)N[C@H](C(=O)N2CCC[C@H]2C(=O)N[C@@H](CC(=O)O)C(=O)O)[C@@H](C)CC)NC(=O)[C@H]([C@@H](C)CC)NC(=O)[C@@H]2C[C@@H]3CCCC[C@@H]3N2C(=O)[C@@H]2C=CCN2C(=O)[C@H](CC(C)C)NC(=O)[C@H](CO)NC(=O)[C@H](CCCNC(=N)N)NC(=O)[C@H](CO)NC1=O
# B6: Example 212: GIC+SRS-((tBu)A)-P-(Oic)-I-((N-Me)C)+IPD-NH2 (peptide)
# peptide: GICSRS[tBuAla]P[Oic]I[NMeC]IPD-NH2
# modifications: disulfide 3-11; N-terminus assumed
# SMILES: CC[C@H](C)[C@H](NC(=O)CN)C(=O)N[C@H]1CSSC[C@@H](C(=O)N[C@H](C(=O)N2CCC[C@H]2C(=O)N[C@@H](CC(=O)O)C(N)=O)[C@@H](C)CC)N(C)C(=O)[C@H]([C@@H](C)CC)NC(=O)[C@@H]2C[C@@H]3CCCC[C@@H]3N2C(=O)[C@@H]2CCCN2C(=O)[C@H](CC(C)(C)C)NC(=O)[C@H](CO)NC(=O)[C@H](CCCNC(=N)N)NC(=O)[C@H](CO)NC1=O
# B7: Example 271: ((N-Me)G)-IC+SRSLPPIC+IPD-NH2 (peptide)
# peptide: [Sar]ICSRSLPPICIPD-NH2
# modifications: disulfide 3-11; N-terminus assumed
# SMILES: CC[C@H](C)[C@H](NC(=O)CNC)C(=O)N[C@H]1CSSC[C@@H](C(=O)N[C@H](C(=O)N2CCC[C@H]2C(=O)N[C@@H](CC(=O)O)C(N)=O)[C@@H](C)CC)NC(=O)[C@H]([C@@H](C)CC)NC(=O)[C@@H]2CCCN2C(=O)[C@@H]2CCCN2C(=O)[C@H](CC(C)C)NC(=O)[C@H](CO)NC(=O)[C@H](CCCNC(=N)N)NC(=O)[C@H](CO)NC1=O
# B8: Example 226: (2-(3-Pyridyl)acetic acid)-IC+SRS-((tBu)A)-PPI-(Pen)+IP-NH2 (peptide)
# peptide: {2‑(3-Pyridyl)acetic acid}-ICSRS[tBuAla]PPI[Pen]IP-NH2
# modifications: disulfide 2-10
# B9: Example 347: IC+SRSLP-(Oic)-I-(Pen)+IPD-OH (peptide)
# peptide: ICSRSLP[Oic]I[Pen]IPD-OH
# modifications: disulfide 2-10; N-terminus assumed
# SMILES: CC[C@H](C)[C@H](N)C(=O)N[C@H]1CSSC(C)(C)[C@@H](C(=O)N[C@H](C(=O)N2CCC[C@H]2C(=O)N[C@@H](CC(=O)O)C(=O)O)[C@@H](C)CC)NC(=O)[C@H]([C@@H](C)CC)NC(=O)[C@@H]2C[C@@H]3CCCC[C@@H]3N2C(=O)[C@@H]2CCCN2C(=O)[C@H](CC(C)C)NC(=O)[C@H](CO)NC(=O)[C@H](CCCNC(=N)N)NC(=O)[C@H](CO)NC1=O
# B10: Example 360: (4-(3,5-Dimethyl-1,2-oxazol-4-yl)-L-phenylalanine)-IC+SRSLP-(Oic)-I-(Pen)+IP-NH2 (peptide)
# peptide: [X7]ICSRSLP[Oic]I[Pen]IP-NH2
# modifications: disulfide 3-11; N-terminus assumed
# SMILES: CC[C@H](C)[C@H](NC(=O)[C@@H](N)Cc1ccc(-c2c(C)noc2C)cc1)C(=O)N[C@H]1CSSC(C)(C)[C@@H](C(=O)N[C@H](C(=O)N2CCC[C@H]2C(N)=O)[C@@H](C)CC)NC(=O)[C@H]([C@@H](C)CC)NC(=O)[C@@H]2C[C@@H]3CCCC[C@@H]3N2C(=O)[C@@H]2CCCN2C(=O)[C@H](CC(C)C)NC(=O)[C@H](CO)NC(=O)[C@H](CCCNC(=N)N)NC(=O)[C@H](CO)NC1=O
# B11: Example 305: (Tetrahydropyranyl-4-acetic acid)-IC+SRS-((tBu)A)-PPI-((N-Me)C)+I-NH2 (peptide)
# peptide: X5-ICSRS[tBuAla]PPI[NMeC]I-NH2
# modifications: disulfide 2-10
# SMILES: CC[C@H](C)[C@H](NC(=O)[C@@H]1CSSC[C@H](NC(=O)[C@@H](NC(=O)CC2CCOCC2)[C@@H](C)CC)C(=O)N[C@@H](CO)C(=O)N[C@@H](CCCNC(=N)N)C(=O)N[C@@H](CO)C(=O)N[C@@H](CC(C)(C)C)C(=O)N2CCC[C@H]2C(=O)N2CCC[C@H]2C(=O)N[C@@H]([C@@H](C)CC)C(=O)N1C)C(N)=O
# B12: Example 323: GIC+SRSLP-(Oic)-IC+IPD-OH (peptide)
# peptide: GICSRSLP[Oic]ICIPD-OH
# modifications: disulfide 3-11; N-terminus assumed
# SMILES: CC[C@H](C)[C@H](NC(=O)CN)C(=O)N[C@H]1CSSC[C@@H](C(=O)N[C@H](C(=O)N2CCC[C@H]2C(=O)N[C@@H](CC(=O)O)C(=O)O)[C@@H](C)CC)NC(=O)[C@H]([C@@H](C)CC)NC(=O)[C@@H]2C[C@@H]3CCCC[C@@H]3N2C(=O)[C@@H]2CCCN2C(=O)[C@H](CC(C)C)NC(=O)[C@H](CO)NC(=O)[C@H](CCCNC(=N)N)NC(=O)[C@H](CO)NC1=O
# B13: Example 281: ((N-Me)G)-IC+SRSLPPIC+IPD-OH (peptide)
# peptide: [Sar]ICSRSLPPICIPD-OH
# modifications: disulfide 3-11; N-terminus assumed
# SMILES: CC[C@H](C)[C@H](NC(=O)CNC)C(=O)N[C@H]1CSSC[C@@H](C(=O)N[C@H](C(=O)N2CCC[C@H]2C(=O)N[C@@H](CC(=O)O)C(=O)O)[C@@H](C)CC)NC(=O)[C@H]([C@@H](C)CC)NC(=O)[C@@H]2CCCN2C(=O)[C@@H]2CCCN2C(=O)[C@H](CC(C)C)NC(=O)[C@H](CO)NC(=O)[C@H](CCCNC(=N)N)NC(=O)[C@H](CO)NC1=O
# B14: Example 284: (Cyclobutylacetic)-IC+SRS-((tBu)A)-PPI-(Pen)+IP-NH2 (peptide)
# peptide: Cyclobutylacetic-ICSRS[tBuAla]PPI[Pen]IP-NH2
# modifications: disulfide 2-10
# SMILES: CC[C@H](C)[C@H](NC(=O)CC1CCC1)C(=O)N[C@H]1CSSC(C)(C)[C@@H](C(=O)N[C@H](C(=O)N2CCC[C@H]2C(N)=O)[C@@H](C)CC)NC(=O)[C@H]([C@@H](C)CC)NC(=O)[C@@H]2CCCN2C(=O)[C@@H]2CCCN2C(=O)[C@H](CC(C)(C)C)NC(=O)[C@H](CO)NC(=O)[C@H](CCCNC(=N)N)NC(=O)[C@H](CO)NC1=O
# B15: Example 232: ((N-Me)G)-IC+SRSLPPI-((N-Me)C)+IPD-OH (peptide)
# peptide: [Sar]ICSRSLPPI[NMeC]IPD-OH
# modifications: disulfide 3-11; N-terminus assumed
# SMILES: CC[C@H](C)[C@H](NC(=O)CNC)C(=O)N[C@H]1CSSC[C@@H](C(=O)N[C@H](C(=O)N2CCC[C@H]2C(=O)N[C@@H](CC(=O)O)C(=O)O)[C@@H](C)CC)N(C)C(=O)[C@H]([C@@H](C)CC)NC(=O)[C@@H]2CCCN2C(=O)[C@@H]2CCCN2C(=O)[C@H](CC(C)C)NC(=O)[C@H](CO)NC(=O)[C@H](CCCNC(=N)N)NC(=O)[C@H](CO)NC1=O
# Biological target: T1, recombinant rat MASP1 active protease …
# Test: cell-based or functional assay
row,rat MASP1 IC50 [nM],Binder
1,130,B1
2,380,B2
3,60.4,B3
4,120,B4
5,1000,B5
6,24.6,B6
7,88.7,B7
8,29,B8
9,1000,B9
10,120,B10
11,76,B11
12,51.8,B12
13,270,B13
14,60,B14
15,67.3,B15

# Biological target: recombinant rat MASP2 active protease (amino acids 296-685, C-terminal His Tag) (rat, UniProt Q9JJS8 296-685)
# Test: cell-based or functional assay
# recombinant rat MASP2 active protease (amino acids 296-685, C-terminal His Tag), sequence (Q9JJS8 other isoform, or with tags, fused parts or gaps limits assumed): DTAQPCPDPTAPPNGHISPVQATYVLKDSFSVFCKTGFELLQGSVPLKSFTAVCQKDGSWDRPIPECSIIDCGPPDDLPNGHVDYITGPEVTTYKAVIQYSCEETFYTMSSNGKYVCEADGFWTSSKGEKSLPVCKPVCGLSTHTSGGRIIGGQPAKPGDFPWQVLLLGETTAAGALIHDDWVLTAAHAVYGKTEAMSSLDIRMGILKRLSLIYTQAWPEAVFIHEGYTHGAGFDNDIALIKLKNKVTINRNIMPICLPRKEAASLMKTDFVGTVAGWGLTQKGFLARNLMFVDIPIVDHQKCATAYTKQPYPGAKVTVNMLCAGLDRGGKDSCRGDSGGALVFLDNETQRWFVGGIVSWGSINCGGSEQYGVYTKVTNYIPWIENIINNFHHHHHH
row,rat MASP2 IC50 [nM],Binder
1,42,B1
2,29,B2
3,42.4,B3
4,9.6,B4
5,1000,B5
6,34.5,B6
7,55.2,B7
8,2.9,B8
9,1000,B9
10,73,B10
11,5.3,B11
12,60.1,B12
13,308,B13
14,9.7,B14
15,125,B15

# Source: patent US20210246166A1 (Bayer, published 2021)
